In patent US20240108688A1, “Inhibitors of the tissue factor-protease activated receptor 2 (TF-PAR2) signaling pathway for use in the treatment or prevention of heart failure (HF) and associated or resulting diseases” (priority 2020, published 2024):

Key:
[1] = system: permanent LAD ligation mouse model of MI
Description: B), High-frequency ultrasound echocardiography obtained in parasternal long axis (PLAX) with measurement of left ventricular ejection fraction (LVEF, %) and left ventricular end diastolic volume (LVEDV, μl) on day 7 after operation. […] Ordinary one-way ANOVA, Sidak's multiple comparison test, n=4-7 animals per group.
C), Experimental design: Mice were injected with NAPc2 (1 mg/kg/d) once daily by i.p. injection from day 1 through day 7. D), High-frequency echocardiography obtained in parasternal long axis (PLAX) with measurement of LVEF, LVEDV on day 7 after LAD ligation. E), Representative blots for protein expression analysis of pERK1/2, NOX2, TGF-β1 and α-SMA in infarcted myocardium obtained from vehicle or NAPc2 treated mice. F-H, Mice were injected with NAPc2 (1 mg/kg/d) and/or vehicle (1 mg/kg/d) once daily by i.p. injection from day 1 through day 7 followed by longitudinal analysis. […] Echocardiographic studies over 4 weeks from day 7 for LVEF (%), LVEDV (p1) in PLAX M-mode; two-way ANOVA, Bonferroni's multiple comparisons test, n=6-12 animals per each group (G). Kaplan-Meier survival analysis of LAD ligated versus sham operated NAPc2 876 and vehicle treated mice after 4 weeks. Log-rank (Mantel-Cox) test, n=7-15 animals per group (H).

human monocytes = test: Isolated human monocytes exposed to hypoxia (OGD) plus inflammatory cytokine cocktail, western blot; type: cell-based; details: NAPc2 200 ng/ml; cytokine cocktail 20 ng/ml plus hypoxia
Description: Representative blots and quantification. […] Representative images and quantification of replicates.
Monocytes isolation and in vitro culture: Bone marrow derived cell suspensions were isolated by flushing femurs and tibias of 8-12 weeks old mice. Cell aggregates were removed by gentle pipetting and the cell lysates were passed through a 70 μm nylon strainer to remove the cell debris. Furthermore, to enrich monocytes population, mouse monocyte isolation Kit ([…] Technologies Inc., Vancouver, BC, Canada) was used according to standard protocols provided by the manufacturer. To mimic in vivo ischemic conditions, a protocol of oxygen-glucose-deprivation (OGD) is applied along with the cytokine cocktail mix (IL-6, TNF-α and MCP-1) at concentrations of 20 ng/ml for 4 hours followed by the protein expression analysis of pERK1/2, NOX2 and TGF-β1 on isolated monocytes. […] For blocking TF-FVIIa signaling on human monocytes, isolated monocytes from healthy individuals were treated with NAPc2 in the presence of OGD along with the cytokine cocktail mix followed by the protein expression analysis of pERK1/2, NOX2 and TGF-β1.

[2] = prevention of venous thromboembolism, total knee replacement patients (ref 27); cited from earlier work
[3] = human, in vivo; cited from earlier work
[4] = NAPc2 1 mg/kg/d i.p. day 1-7, western blot
[5] = NAPc2 1 mg/kg/d i.p. starting 1 day after MI, 7 d after LAD ligation

Row | Molecule | cardiac function in sham-operated mice ([1]; trametinib 1 mg/kg/d oral, sham surgery) | ERK1/2 phosphorylation (human monocytes) | NOX2 expression (human monocytes) | TGF-β1 activation (human monocytes) | cardiac function (LVEF, LVEDV by echocardiography) ([1]; NAPc2 1 mg/kg/d i.p. day 1-7, day 7 after LAD ligation) | cardiac infiltration of CD11b+ myeloid cells ([1]; NAPc2 1 mg/kg/d i.p. day 1-7, flow cytometry of infarcted myocardium) | ERK1/2 phosphorylation in the infarcted heart [1, 4] | NOX2 expression in the infarcted heart [1, 4] | TGF-β1 activation in the infarcted heart [1, 4] | up-regulation of the downstream target α-SMA in the infarcted heart [1, 4] | levels of NOX2 in circulating myeloid cells (PBMCs) [1, 5] | levels of active TGF-β1 in circulating myeloid cells (PBMCs) [1, 5] | cardiac fibrosis (fibrotic areas normalized to surface area) ([1]; short term NAPc2 1 mg/kg/d i.p. from 1 d until 7 d post MI, longitudinal analysis, compared to vehicle) | survival (Kaplan-Meier, 4 weeks) ([1]; short term NAPc2 1 mg/kg/d i.p. from 1 d until 7 d post MI, LAD ligated mice) | cardiac function in chronic MI (LVEF, LVEDV over 4 weeks) ([1]; short term NAPc2 1 mg/kg/d i.p. from 1 d until 7 d post MI, compared to vehicle) | antithrombotic effect [2] | safety [3]
1 | CC(=O)Nc1cccc(-n2c(=O)n(C3CC3)c(=O)c3c(Nc4ccc(I)cc4F)n(C)c(=O)c(C)c32)c1 [trametinib, reference compound] | no significant effects | – | – | – | – | – | – | – | – | – | – | – | – | – | – | – | –
2 | NAPc2: single-chain, non-glycosylated 85 amino acid protein, 9732 Da; blocks TF signaling and coagulation via inhibited TF-FVIIa-FX(a) complex (protein, listed as Ancylostoma caninum) KATMQCGENEKYDSCGSKECDKKCKYDGVEEEDDEEPNVPCLVRVCHQDCVCEEGFYRNKDDKCVSAEDCELDNMDFIYPGTRN | – | reduced | suppressed | suppressed | improved cardiac function | attenuated | diminished | diminished | diminished | diminished | attenuated | attenuated | significantly reduced | improved survival | improved cardiac function | has been demonstrated | documented safety
